Data as given in publication PMC6648347, “Effective mismatch repair depends on timely control of PCNA retention on DNA by the Elg1 complex” (Nucleic Acids Research, 2019).
Numbering of substitutions follows the chain as printed. Names and notes keep the numbering of the source.

B1: PCNA-D17K (recombinant, crystallised) (natural protein, S. cerevisiae)
chain: MLEAKFEEASLFKRIIKGFKDCVQLVNFQCKEDGIIAQAVDDSRVLLVSLEIGVEAFQEYRCDHPVTLGMDLTSLSKILRCGNNTDTLTLIADNTPDSIILLFEDTKKDRIAEYSLKLMDIDADFLKIEELQYDSTLSLPSSEFSKIVRDLSQLSDSINIMITKETIKFVADGDIGSGSVIIKPFVDMEHPETSIKLEMDQPVDLTFGAKYLLDIIKGSSLSDRVGIRLSSEAPALFQFDLKSGFLQFFLAPKFNDEE
notes: PCNA (POL30), S. cerevisiae, with D17K; modified pET-28 vector with an N-terminal 6-His tag and a PreScission Protease cleavage site; also called PCNA mutant D17K
B2: PCNA-D21K (recombinant, crystallised) (natural protein, S. cerevisiae)
chain: B1 chain with K17D, D21K
notes: PCNA (POL30), S. cerevisiae, with D21K; modified pET-28 vector with an N-terminal 6-His tag and a PreScission Protease cleavage site; also called PCNA mutant D21K

Target: the molecule itself
Test: crystal structure; hanging drop, room temperature; 50 mM sodium citrate pH 5.3, 1.7 M (NH4)2SO4 for PCNA-D17K; 50 mM sodium citrate pH 5.6, 2 M (NH4)2SO4 for PCNA-D21K; molecular replacement with wild-type PCNA (PDB 4YHR)

Protein	binding result
B1	binds
B2	binds
